This is an account of results in paper PMC11996864, “A small-molecule inhibitor of BCL10-MALT1 interaction abrogates progression of diffuse large B cell lymphoma” (The Journal of Clinical Investigation, 2025).

“And” between values parts separate entries of the source, which are not always exact repeats. Equal entries are not always repeated.

For test [1], the target named is T1, BCL10 (Homo sapiens, UniProt O95999).
T1 construct: Full-length GST-BCL10 (Abnova, catalog H00008915-P01) was immobilized onto a gold sensor chip surface; GST (N); purchased Abnova H00008915-P01
T1 sequence (O95999 1-233): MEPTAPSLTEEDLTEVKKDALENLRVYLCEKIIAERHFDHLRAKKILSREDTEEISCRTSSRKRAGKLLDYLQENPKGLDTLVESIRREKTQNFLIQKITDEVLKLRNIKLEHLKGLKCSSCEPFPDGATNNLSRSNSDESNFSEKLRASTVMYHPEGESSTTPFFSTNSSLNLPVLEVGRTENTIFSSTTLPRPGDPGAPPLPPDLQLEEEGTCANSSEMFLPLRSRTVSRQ
The test is described as follows: ELISA binding of recombinant MALT1 or GRK2 to immobilized BCL10. Particulars: protein added to immobilized BCL10. The procedure: ELISA-based protein-protein interaction assay. On a high-binding 96-well ELISA microplate (Greiner Cat# 655061), 100 ng of His-tagged recombinant human full-length BCL10 protein (Novus Cat# NBP1-99064) or in 100 µl PBS was allowed to adhere overnight at 4°C. The plate was blocked with 5% BSA in PBS for 1 hour at room temperature. After washing twice with PBS-T, a mixture of 100 ng of GST-tagged recombinant human full-length MALT1 protein (Novus Biologicals Cat# H00010892-P01) and compound that was preincubated for 1 hour in 100 μl PBS was added to the plate for 1 hour at room temperature. After washing three times with PBS-T, anti-MALT1 antibody (Cell Signaling Technology, Cat# 2494) in 5% BSA in PBS was added at 1:1000 dilution for 1 hour at room temperature. After washing three times with PBS-T, HRP-conjugated secondary antibody in 5% BSA in PBS was added at 1:5000 dilution for 1 hour at room temperature. After washing three times with PBS-T, 100 µl of 3,3’,5,5’-tetramethylbenzidine (TMB) substrate solution (Thermo Scientific, Cat# 34028) was added for up to 15 minutes, and 100 µl of 2 M sulfuric acid was added to stop the reaction. The plate was read at 450 nm using a spectrophotometer (Molecular Devices SpectraMax i3). […]

The next test has as its target T2, Full-length GST-BCL10 (UniProt O95999 1-233).
T2 construct: BCL10, full length; also called immobilized BCL10; source: bought: Abnova, catalog H00008915-P01
T2 sequence (looked up): T1 sequence (O95999 1-233)
The test is described as follows: SPR; Biacore 2000; full-length GST-BCL10 immobilised on a gold sensor chip surface, purified MALT1 fragments injected as analyte; Langmuir model, global fitting, 1:1 binding. Particulars: both partners purified.

In test [2] the target is T1, BCL10. The test is described as follows: SPR binding of MALT1 protein fragments to immobilized BCL10. The method, then: Surface plasmon resonance (SPR) experiments were performed on a Biacore 2000 system (Cytiva). Full-length GST-BCL10 (Abnova, catalog H00008915-P01) was immobilized onto a gold sensor chip surface, and analyte solution containing MALT1(DD+Ig1-2), MALT1(DD), or MALT1(Ig1-2) purified protein was injected over the surface through a series of flow cells (see Supplemental Methods for details on protein purification). The binding kinetic parameters were obtained using the Langmuir model for global fitting with 1:1 binding ratio where one ligand molecule interacts with one analyte molecule. The equilibrium dissociation constant (KD) of M1i-124 to full-length GST-tagged MALT1 (Novus, catalog H00010892-P01) protein was determined by Creative Biolabs using Biacore T200. Full-length MALT1 protein was immobilized onto CM5 sensor chip surface, and M1i-124 was injected at concentrations of 0, 12.5, 25, 50, 100, and 200 μM. The steady-state affinity model was used to determine the KD.
Supplemental Materials and Methods
Cell lines and reagents. The DLBCL cell lines OCI-Ly1, OCI-Ly3, and OCI-Ly7 were provided by Mark D. Minden (University Health Network, Toronto, Ontario, Canada) , TMD8 cell line was provided by Louis Staudt (National Cancer Institute, NIH, Bethesda Maryland), and the BJAB cell line was provided by Mathijs Baens (Katholieke Universiteit Leuven, Leuven, Belgium). […]

Consider BCL10 + GRK2, for which the OD450 with BCL10 [1] was 0.226 and 0.156.

Consider BCL10 + MALT1, for which the OD450 in the test with BCL10 [1] is 0.851 and 0.825.

B1: MALT1(DD+Ig1-2) purified protein (domain or fragment)
chain: MSLLGDPLQALPPSAAPTGPLLAPPAGATLNRLREPLLRRLSELLDQAPEGRGWRRLAELAGSRGRLRLSCLDLEQCSLKVLEPEGSPSLCLLKLMGEKGCTVTELSDFLQAMEHTEVLQLLSPPGIKITVNPESKAVLAGQFVKLCCRATGHPFVQYQWFKMNKEIPNGNTSELIFNAVHVKDAGFYVCRVNNNFTFEFSQWSQLDVCDIPESFQRSVDGVSESKLQICVEPTSQKLMPGSTLVLQCVAVGSPIPHYQWFKNELPLTHETKKLYMVPYVDLEHQGTYWCHVYNDRDSQDSKKVEIIIDELNNLGHPDNKEQTTDQ
modifications: Printed as aa 1-326, MBP tag removed by TEV. Taken in isoform B numbering (lacks 309-319): the paper uses isoform B (C-terminus at 813), and the 3K0W construct, 199 residues after its tag and ending …
As for B1, binding in the test with Full-length GST-BCL10 was put at a Kd of 25 nM.

B2: MALT1(DD): Recombinant human MALT1 fragment, death domain only (aa 29-124) (protein, UniProt Q9UDY8 29-124, looked up, fragment)
chain: TLNRLREPLLRRLSELLDQAPEGRGWRRLAELAGSRGRLRLSCLDLEQCSLKVLEPEGSPSLCLLKLMGEKGCTVTELSDFLQAMEHTEVLQLLSP
Turning to B2, the “binding to BCL10” value with BCL10 [2] (result in words) is given as “no detectable binding”.

B3: MALT1(DD+Ig1-2): Recombinant human MALT1 fragment, death domain plus Ig1-2 domains (aa 1-326) (protein, UniProt Q9UDY8 1-326, looked up, fragment)
chain: MSLLGDPLQALPPSAAPTGPLLAPPAGATLNRLREPLLRRLSELLDQAPEGRGWRRLAELAGSRGRLRLSCLDLEQCSLKVLEPEGSPSLCLLKLMGEKGCTVTELSDFLQAMEHTEVLQLLSPPGIKITVNPESKAVLAGQFVKLCCRATGHPFVQYQWFKMNKEIPNGNTSELIFNAVHVKDAGFYVCRVNNNFTFEFSQWSQLDVCDIPESFQRSVDGVSESKLQICVEPTSQKLMPGSTLVLQCVAVGSPIPHYQWFKNELPLTHETKKLYMVPYVDLEHQGTYWCHVYNDRDSQDSKKVEIIIGRTDEAVECTEDELNNLG
Turning to B3, the Kd in the test with BCL10 [2] (MALT1 fragment over immobilized BCL10) came out at 25 nM.

B4: MALT1(Ig1-2) purified protein (domain or fragment)
chain: KITVNPESKAVLAGQFVKLCCRATGHPFVQYQWFKMNKEIPNGNTSELIFNAVHVKDAGFYVCRVNNNFTFEFSQWSQLDVCDIPESFQRSVDGVSESKLQICVEPTSQKLMPGSTLVLQCVAVGSPIPHYQWFKNELPLTHETKKLYMVPYVDLEHQGTYWCHVYNDRDSQDSKKVEIII
notes: MALT1, tandem Ig-like domains Ig1 and Ig2; PDB 3K0W is the published MALT1(Ig1-2) crystal structure, whose limits may differ from this construct; Host, tags and limits are in Supplemental Methods; source: purified protein (purification in Supplemental Methods)
B4 returned a Kd in the test with Full-length GST-BCL10 of 29 nM.
